Experimental findings from the supplement of paper PMC12042874 are described below.

Data set [1] is described as follows: amyloid nucleation score (Sup35N fusion, yeast selection) (log enrichment); library NNK2; higher = more nucleation; inactive = no reads after selection. Put shortly:
(§1)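 Sup35N was fused to peptides of 20 random codons and expressed in psi-negative yeast, which were induced with 100 μM copper sulfate for 24 hours and then grown on medium lacking adenine and uracil for 7 days at 30°C. Plasmid inserts from input and output were sequenced on Illumina. The nucleation score is the DiMSum log enrichment of output over input reads, centred on the mode score of non-aggregating sequences. Sequences with under 100 input reads were left out, and random libraries had three technical output replicates.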

Data set [2] is described as follows: amyloid nucleation score (Sup35N fusion, yeast selection) (log enrichment); library NNK3; higher = more nucleation; inactive = no reads after selection. Put shortly:
as §1

± gives the uncertainty stated by the source.

NRDVVKKLPGPSSFVMT: the amyloid nucleation score in data set [1] is -0.552 ± 0.44. On the same count and under the same terms, the figure for RHGVVLSNVSKSVVSVPGAK is -0.409 ± 0.76. Take KYDGAFQRGGIIQISYLCLW: the amyloid nucleation score in data set [1] was found to be 4.87 ± 0.071. Same read-out and setting: the result for LDLDMRGKHFVFHHTVKHAI reads 1.79 ± 0.14; that for GSWFPFWLSASMHGSCIYTR, -0.576 ± 0.44; that for YGAWCERLKRFSRLVWSDGR, 0.312 ± 0.54. The substance GASPWPHTTMIFISILSNCV displayed an amyloid nucleation score in data set [1] of 3.37 ± 0.11.

In turn, RLDSMMVAYNAT showed an amyloid nucleation score in data set [1] of 0.724 ± 0.81. Still for that read-out and setting: the result for WCKLDWLIWGIEQRP reads 0.063 ± 1.1; that for QLESKRWWDIGWCSYLAGGW, 4.92 ± 0.068. On the same count and under the same terms, the figure for WYVYSESRIS is -0.267 ± 0.42; for FAWGPFA it is -0.557 ± 0.37.

In data set [1], QDNFQFFAVSMRGCDCTGVS yielded an amyloid nucleation score of 6.96 ± 0.048. On the same count and under the same terms, the result for DRHRFIHFYAQGERKLSRTM reads -0.358 ± 0.79. Consider RTVDELTRRWWSKRRMGMSW, for which, in data set [1], the amyloid nucleation score was 2.03 ± 0.25. On the same count and under the same terms, the figure for YGMKSRVECVVY is -0.949 ± 0.63; for NLQLTFGS it is -0.202 ± 0.21; for GSWLCCSLRWSSSALGVGWA it is 1.12 ± 0.39. On the same count and under the same terms, the result for FCSSIVMVNSQCFVKSFSTK reads 6.311 ± 0.028. On the same count and under the same terms, the figure for MWQSMLSAVGSVNVMSQLGT is 1.53 ± 0.33; for FCISFRTRSDPRSHSSGAIE it is 0.498 ± 0.54. WFRYNCHDFSLTNPWRHHNL came in with an amyloid nucleation score in data set [1] of 0.507 ± 0.52. On the same count and under the same terms, the result for FWGGKNYI reads -1.5 ± 0.75; that for CFDPGTNRCLPWAVGVGELG, 0.959 ± 0.74; that for PFAWANKYTIQPINPYRGAA, -0.552 ± 0.41.

In the case of KRNVLRVTSCHKEYSVGSVP, the amyloid nucleation score in data set [1] was 0.739 ± 0.22. Still for that read-out and setting: the figure for LADSAYTPY is -0.727 ± 0.54; for FNDHWARRRRDFVNIWFWSE it is -0.047 ± 1.1; for DISCCLYRDTPVWERKDYVA it is -0.506 ± 1. On the same count and under the same terms, the figure for KSVFYIWFSHRVSVVAVRQL is 5.13 ± 0.093; for VCFRYGEYLNVKIF it is -0.789 ± 0.63; for KLGFWVGSWLSSRSVDCSCM it is 1.33 ± 0.35.

Regarding TVVFYNNIIFGFDFSSAKWL, the amyloid nucleation score in data set [1] stood at 6.21 ± 0.067. Substance DAMRVASEHIIVTAAAS displayed an amyloid nucleation score in data set [1] of 2.72 ± 0.12. Regarding NWVLVVGSSWEFLSGSASGG, the amyloid nucleation score in data set [1] amounted to 2.18 ± 0.17.

In the case of NSIVWGIHGFVLTLVFFTCF, the amyloid nucleation score in data set [1] is -0.849 ± 1.

In data set [1], IWHFYIACLGVSNESISGFG returned an amyloid nucleation score of 6.77 ± 0.068. Still for that read-out and setting: the figure for RYYDLTNVVRPHYPCAHGDV is 7.333 ± 0.054; for RLGEWGFNRLVWFNKEAVCS it is 0.495 ± 0.47; for VYTLIIDW it is -1.44 ± 0.78. In the case of HDKLVTRLYWYSKCVVKGLN, the amyloid nucleation score in data set [1] was -0.375 ± 1.1. Still for that read-out and setting: the result for KYYCATSSVFYASSRQMFKS reads -0.267 ± 0.49. On the same count and under the same terms, the figure for LLMLVSFLIDDEAFSVFDLL is 0.672 ± 0.39; for RTCHGHYFLMM it is 0.683 ± 0.74. The same measure, in the same setting: the result for DRVLTPNKGGKPRTLPHRDS reads 1.19 ± 0.37; that for MLKMS, 1.85 ± 0.15; that for DVKSAWRLGVGCLTVRAIRE, 0.233 ± 0.49. NFMYRSSMFMHL: the amyloid nucleation score in data set [1] was 4.74 ± 0.074.

Take CSVSGNLQISFYGNMPINSF: the amyloid nucleation score in data set [1] was -0.924 ± 0.78. On the same count and under the same terms, the figure for VCYNT is 0.833 ± 0.74; for PSFMLHTCLFSHGYYILCTG it is 0.005 ± 0.3.

With VSASEEVPAFCCVTVAQ, in data set [1], the amyloid nucleation score is -0.195 ± 0.61. Still for that read-out and setting: the result for QVLTMNRLWVVPPAHYCVVG reads 0.84 ± 0.53; that for LEYCDATLVVRDRQVSAVFL, 0.584 ± 0.35. On the same count and under the same terms, the result for CLAPFHYDQYCKWESDSVSR reads -0.438 ± 0.44; that for FLSVEENGLTDVTVMGWFV, 0.19 ± 1.1; that for VGNLRGYVKLVISFSVLRHK, “inactive”.

Turning to NLRMVG, the amyloid nucleation score in data set [1] was determined as 0.182 ± 1.1. The substance YNVQFTSEIVSE displayed an amyloid nucleation score in data set [1] of 0.001 ± 0.35. The same measure, in the same setting: the result for TWGQVII reads -0.465 ± 1. As to SCTWRRGFSSQVKYMNRQSI, the amyloid nucleation score in data set [1] was determined as 0.989 ± 0.13. The same measure, in the same setting: the figure for LWIGWSLKPKVDVRLCHWVK is 0.173 ± 1.1; for AFTCYVETSIIMPNMS it is -0.734 ± 0.76; for DGGMR it is 0.322 ± 0.5. The same measure, in the same setting: the entry for VDVHIIIMKPDSWVCPNRCS is “inactive”; for TNTLMGPFWLSWSNVQPNRS it is -0.787 ± 0.54. Same read-out and setting: the figure for SVDRNNTYLYRLKYAFWAMG is 6.644 ± 0.043; for DFCWAFRAASLSRGVRLAAV it is 3.23 ± 0.11.

As for KSASRYNRQWNRHSYWMANR, the amyloid nucleation score in data set [1] was -0.064 ± 0.34. On the same count and under the same terms, the result for FIERSSLEDNVSSALAISR reads 0.704 ± 0.47. Still for that read-out and setting: the result for FYPVFKSMLVMAGVTRHLAR reads -0.487 ± 0.26; that for TRLVWIFLSPM, -0.169 ± 0.25; that for DRIGIRYWG, 1.34 ± 0.14. Take CDGAPSRLGRGLWGWSIMYG: the amyloid nucleation score in data set [1] was found to be 0.921 ± 0.51. The same measure, in the same setting: the figure for CNRPGSGTHGRCTVMDSTMG is 0.389 ± 0.56; for RKAFIHVDKRLDSSIGTRSG it is 0.321 ± 0.41; for RSSRVEYSCLDGRMRELRGS it is -0.443 ± 0.48. Still for that read-out and setting: the result for PHLFFDTFV reads 3.98 ± 0.087. In the case of PRLPTQTITK, the amyloid nucleation score in data set [1] was determined as 1.53 ± 0.16. Turning to AMGMRTSYCGC, in data set [1], the amyloid nucleation score result is “inactive”. Substance MLIIKVLCSMCIVIFLTLIC showed an amyloid nucleation score in data set [1] of 2.55 ± 0.18.

Regarding RVVRGWIAYFW, the amyloid nucleation score in data set [1] is 0.374 ± 0.44. Still for that read-out and setting: the result for LCHTRCDRNSSCLL reads -0.56 ± 0.79. Turning to GLFMRFTRWCRGKHVTMVP, in data set [2], the amyloid nucleation score result is “inactive”. Turning to PMPCIYVSGVWHRVLLCFLS, the amyloid nucleation score result in data set [2] is “inactive”. The same measure, in the same setting: the entry for KSRERFLCSKGMSPQQTHMY is “inactive”; for ACLLVRYHTDDSNKRCSL it is “inactive”; for FTFLMDRY it is -0.083 ± 0.34. The same measure, in the same setting: the figure for VFYIYSRW is 1.69 ± 0.091; for ASAEEGWQNCEK it is “inactive”. The same measure, in the same setting: the result for LSPQSIVSYYTLWTFGFTAC reads -0.28 ± 0.77. With VIFKKGLRLFTSSCDWSISD, the amyloid nucleation score entry in data set [2] is “inactive”. On the same count and under the same terms, the result for WPKLVGCYRGSKGINGRVLY reads “inactive”; that for EDLVLRIDSTAACAELEKWL, “inactive”. Same read-out and setting: the result for TTRIVSNCCMLIVL reads 1.29 ± 0.12; that for IVVCRKEDSAQRFSFVRLSD, “inactive”; that for KTLYTDSS, 0.114 ± 0.58.

AYVSHINDMPAFGPKSNKPS: in data set [2], the amyloid nucleation score is -0.19 ± 0.81.

Regarding EVLSMYRCSNVFLWFTKFIA, in data set [2], the amyloid nucleation score entry was “inactive”. The same measure, in the same setting: the result for NEQVGDGLFCP reads -0.057 ± 0.75; that for ATDNVCVI, “inactive”.

As to MMTCF, the amyloid nucleation score result in data set [2] is “inactive”. Consider RAGTKLPLYL, for which the amyloid nucleation score result in data set [2] is “inactive”.

Turning to IPEYYKIRWRYGACRSCIVI, in data set [2], the amyloid nucleation score result is “inactive”.

On to LMHGPMLVFRFVASNSCRER, for which, in data set [2], the amyloid nucleation score result was “inactive”.

Consider FDFARWKDMKRESFLFLDVR, for which the amyloid nucleation score result in data set [2] was “inactive”. Still for that read-out and setting: the entry for VIALVSGEYSWFRILCTPFY is “inactive”. On the same count and under the same terms, the result for TCFLRRFYWRYSGFYATAHY reads “inactive”; that for NLDLGVDLGMQPIGSIKKST, “inactive”. Same read-out and setting: the result for VLPVHNKVNITLTVSAPWLW reads “inactive”; that for IWCSRAGVRWVEMNVEQVYW, “inactive”. Turning to PYLRT, the amyloid nucleation score result in data set [2] is “inactive”.

For the substance VNWIVLSYHYNRYDVGNMAS, the amyloid nucleation score in data set [2] is 2.87 ± 0.074. As for SISVNVCRWTRCLGTQLLSV, the amyloid nucleation score entry in data set [2] was “inactive”. The same measure, in the same setting: the figure for FIIITKAFYRGTKMGGNTYS is -0.427 ± 0.73. Consider SIFCFDYWQDIGTFMPSAVK, for which the amyloid nucleation score result in data set [2] is “inactive”.

Turning to TTFFGCSFGLCRAIIGLDNV, the amyloid nucleation score in data set [2] was determined as 1.34 ± 0.076. On the same count and under the same terms, the result for LIYVFIIFVMIFWVCCTMRS reads 0.166 ± 0.42; that for LYDDHFYDWQGYVRRRILDS, “inactive”; that for AWRAISDKTDGGSYDKSVIV, -0.364 ± 0.8. On the same count and under the same terms, the entry for GFLMGSE is “inactive”.

With KINKREWRRFTVYSVFSHVS, the amyloid nucleation score in data set [2] came to 0.435 ± 0.35. For the substance VRFLGFHKCVILAIDYDQFL, the amyloid nucleation score in data set [2] was determined as 1.67 ± 0.1. On the same count and under the same terms, the result for STWRASIVPSFMVRGCWSIK reads “inactive”; that for FGGLRTATL, “inactive”; that for WLARTRRVVLRNLVLAVTCI, “inactive”. On the same count and under the same terms, the figure for RVLRLLRVDAGHNLI is -0.029 ± 0.81; for TSRLFHKFLGYAPSRTNSSL it is “inactive”; for YYFTFFIKCMRNIMVNSMAA it is “inactive”. For SPAQDQLAVRWVGVDRMMWW, the amyloid nucleation score in data set [2] is -0.434 ± 0.86. On the same count and under the same terms, the result for FMTSEWRMGMYGVSGRITWE reads 0.73 ± 0.24; that for NFRNRMRVLFSCS, “inactive”; that for SGFKG, “inactive”. Same read-out and setting: the result for ESLNGLNRSHA reads “inactive”; that for FVLGGFLNKN, -0.11 ± 1.4; that for TVAEMNIMLC, 2.37 ± 0.076.
